{"source": "the supplement of paper PMC9112550", "about": "“Optimization of the antimicrobial peptide Bac7 by deep mutational scanning” (BMC Biology, 2022);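 also: peptides expressed intracellularly from a pBAD plasmid library in pooled LB shake-flask culture, induced with 0.3% L-arabinose, DNA abundance read by NGS, three biological replicates, DESeq2 with apeglm shrinkage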"}
{"tested_on": "Escherichia coli TOP10", "test": "shrunken log2 fold change of peptide-encoding DNA abundance (4.5 h post-induction vs induction); higher = less antimicrobial activity (less host growth inhibition)", "conditions": "time post-induction: 4.5 h; library: site-saturation at positions 5, 18, 19, 20"}
{"sequence": "RRIRLRPPRLPRPRPRPKEVPRP", "shrunken log2 fold change": -0.147}
{"sequence": "RRIRSRPPRLPRPRPRPKLFPRP", "shrunken log2 fold change": 0.172}
{"sequence": "RRIRERPPRLPRPRPRPAWTPRP", "shrunken log2 fold change": 0.0563}
{"sequence": "RRIRRRPPRLPRPRPRPCDDPRP", "shrunken log2 fold change": -0.0703}
{"sequence": "RRIRFRPPRLPRPRPRPMYHPRP", "shrunken log2 fold change": -1.01}
{"sequence": "RRIRPRPPRLPRPRPRPFTRPRP", "shrunken log2 fold change": -0.00841}
{"sequence": "RRIRDRPPRLPRPRPRPEKRPRP", "shrunken log2 fold change": -0.0167}
{"sequence": "RRIRMRPPRLPRPRPRPTMRPRP", "shrunken log2 fold change": 1.4}
{"sequence": "RRIRERPPRLPRPRPRPALRPRP", "shrunken log2 fold change": 0.0887}
{"sequence": "RRIRQRPPRLPRPRPRPGMKPRP", "shrunken log2 fold change": -0.0822}
{"sequence": "RRIRVRPPRLPRPRPRPRINPRP", "shrunken log2 fold change": -0.07}
{"sequence": "RRIRQRPPRLPRPRPRPTMMPRP", "shrunken log2 fold change": -0.194}
{"sequence": "RRIRLRPPRLPRPRPRPMIRPRP", "shrunken log2 fold change": -0.154}
{"sequence": "RRIRMRPPRLPRPRPRPDAGPRP", "shrunken log2 fold change": 1.12}
{"sequence": "RRIRLRPPRLPRPRPRPTSDPRP", "shrunken log2 fold change": 0.0874}
{"sequence": "RRIRERPPRLPRPRPRPSDKPRP", "shrunken log2 fold change": -0.982}
{"sequence": "RRIRSRPPRLPRPRPRPQRVPRP", "shrunken log2 fold change": -0.00684}
{"sequence": "RRIRKRPPRLPRPRPRPMMNPRP", "shrunken log2 fold change": 0.154}
{"sequence": "RRIRARPPRLPRPRPRPTTIPRP", "shrunken log2 fold change": 0.0651}
{"sequence": "RRIRCRPPRLPRPRPRPWNFPRP", "shrunken log2 fold change": -0.182}
{"sequence": "RRIRYRPPRLPRPRPRPCKDPRP", "shrunken log2 fold change": -1.14}
{"sequence": "RRIRSRPPRLPRPRPRPYWFPRP", "shrunken log2 fold change": -0.624}
{"sequence": "RRIRERPPRLPRPRPRPRTTPRP", "shrunken log2 fold change": 0.00749}
{"sequence": "RRIRERPPRLPRPRPRPEDRPRP", "shrunken log2 fold change": -0.0523}
{"sequence": "RRIRCRPPRLPRPRPRPMICPRP", "shrunken log2 fold change": -0.0738}
{"sequence": "RRIRIRPPRLPRPRPRPHWVPRP", "shrunken log2 fold change": -0.0146}
{"sequence": "RRIRCRPPRLPRPRPRPGVAPRP", "shrunken log2 fold change": 0.632}
{"sequence": "RRIRRRPPRLPRPRPRPCRLPRP", "shrunken log2 fold change": 0.144}
{"sequence": "RRIRTRPPRLPRPRPRPTQLPRP", "shrunken log2 fold change": -0.319}
{"sequence": "RRIRYRPPRLPRPRPRPALTPRP", "shrunken log2 fold change": -0.044}
{"sequence": "RRIRMRPPRLPRPRPRPACNPRP", "shrunken log2 fold change": 0.39}
{"sequence": "RRIRERPPRLPRPRPRPTDDPRP", "shrunken log2 fold change": -0.00106}
{"sequence": "RRIRIRPPRLPRPRPRPSYRPRP", "shrunken log2 fold change": -0.0544}
{"sequence": "RRIRTRPPRLPRPRPRPNWWPRP", "shrunken log2 fold change": 0.188}
{"sequence": "RRIRVRPPRLPRPRPRPRTNPRP", "shrunken log2 fold change": -0.42}
{"sequence": "RRIRHRPPRLPRPRPRPDQVPRP", "shrunken log2 fold change": -0.0632}
{"sequence": "RRIRWRPPRLPRPRPRPKGEPRP", "shrunken log2 fold change": 0.74}
{"sequence": "RRIRARPPRLPRPRPRPQFQPRP", "shrunken log2 fold change": 0.0187}
{"sequence": "RRIRFRPPRLPRPRPRPAIWPRP", "shrunken log2 fold change": 0.195}
{"sequence": "RRIRERPPRLPRPRPRPVPRPRP", "shrunken log2 fold change": 0.151}
{"sequence": "RRIRTRPPRLPRPRPRPRECPRP", "shrunken log2 fold change": 0.00425}
{"sequence": "RRIRFRPPRLPRPRPRPWFPPRP", "shrunken log2 fold change": -0.0773}
{"sequence": "RRIRRRPPRLPRPRPRPNHKPRP", "shrunken log2 fold change": -0.226}
{"sequence": "RRIRQRPPRLPRPRPRPVLDPRP", "shrunken log2 fold change": 0.0663}
{"sequence": "RRIRFRPPRLPRPRPRPPVGPRP", "shrunken log2 fold change": 0.641}
{"sequence": "RRIRIRPPRLPRPRPRPKKTPRP", "shrunken log2 fold change": -0.235}
{"sequence": "RRIRLRPPRLPRPRPRPSLNPRP", "shrunken log2 fold change": -0.625}
{"sequence": "RRIRLRPPRLPRPRPRPKVSPRP", "shrunken log2 fold change": 0.0482}
{"sequence": "RRIRSRPPRLPRPRPRPGYTPRP", "shrunken log2 fold change": -0.129}
{"sequence": "RRIRSRPPRLPRPRPRPLTNPRP", "shrunken log2 fold change": -0.101}
{"sequence": "RRIRGRPPRLPRPRPRPTPNPRP", "shrunken log2 fold change": 0.957}
{"sequence": "RRIRGRPPRLPRPRPRPREGPRP", "shrunken log2 fold change": 1.42}
{"sequence": "RRIRNRPPRLPRPRPRPVHVPRP", "shrunken log2 fold change": 0.0303}
{"sequence": "RRIRYRPPRLPRPRPRPCWLPRP", "shrunken log2 fold change": 0.0283}
{"sequence": "RRIRHRPPRLPRPRPRPDSRPRP", "shrunken log2 fold change": -0.00136}
{"sequence": "RRIRWRPPRLPRPRPRPGQYPRP", "shrunken log2 fold change": 0.0716}
{"sequence": "RRIRTRPPRLPRPRPRPWIRPRP", "shrunken log2 fold change": -0.0303}
{"sequence": "RRIRSRPPRLPRPRPRPDDKPRP", "shrunken log2 fold change": 0.132}
{"sequence": "RRIRWRPPRLPRPRPRPSKWPRP", "shrunken log2 fold change": -0.327}
{"sequence": "RRIRTRPPRLPRPRPRPAQWPRP", "shrunken log2 fold change": 0.0699}
{"sequence": "RRIRCRPPRLPRPRPRPGKDPRP", "shrunken log2 fold change": 0.124}
{"sequence": "RRIRFRPPRLPRPRPRPHMPPRP", "shrunken log2 fold change": -0.0659}
{"sequence": "RRIRTRPPRLPRPRPRPTQQPRP", "shrunken log2 fold change": 0.175}
{"sequence": "RRIRARPPRLPRPRPRPSEMPRP", "shrunken log2 fold change": 0.29}
{"sequence": "RRIRERPPRLPRPRPRPMWLPRP", "shrunken log2 fold change": -0.07}
{"sequence": "RRIRDRPPRLPRPRPRPHWNPRP", "shrunken log2 fold change": -0.201}
{"sequence": "RRIRPRPPRLPRPRPRPTAAPRP", "shrunken log2 fold change": 0.227}
{"sequence": "RRIRPRPPRLPRPRPRPGMLPRP", "shrunken log2 fold change": -0.0338}
{"sequence": "RRIRNRPPRLPRPRPRPVKLPRP", "shrunken log2 fold change": 0.032}
{"sequence": "RRIRCRPPRLPRPRPRPYCWPRP", "shrunken log2 fold change": -0.331}
{"sequence": "RRIRYRPPRLPRPRPRPAHCPRP", "shrunken log2 fold change": 0.0564}
{"sequence": "RRIRDRPPRLPRPRPRPSRMPRP", "shrunken log2 fold change": -0.0207}
{"sequence": "RRIRWRPPRLPRPRPRPQAIPRP", "shrunken log2 fold change": 0.204}
{"sequence": "RRIRARPPRLPRPRPRPQFNPRP", "shrunken log2 fold change": -0.0606}
{"sequence": "RRIRKRPPRLPRPRPRPHVKPRP", "shrunken log2 fold change": -0.258}
